Consider three molecules from article PMC5765368, “Large-Scale Low-Cost NGS Library Preparation Using a Robust Tn5 Purification and Tagmentation Protocol”.

The target of data set [1] is Tn5 transposase, hyperactive allele carrying the R27S, E54K and L372P mutations. Put plainly: SEC; untagged Tn5 on Superdex200 Increase 10/300 GL (Superdex200 10/300 GL at BZH) in 50 mM Tris pH 7.5, 800 mM NaCl, 0.2 mM EDTA, 2 mM DTT, 10% glycerol; last step of the purification. In general terms: Size exclusion chromatography separates by hydrodynamic size, large species first.

The target of data set [2] is Tn5 transposase, hyperactive allele carrying the E54K and L372P mutations. The data set is described as above.
Data set [3] has as its target Tn5 transposase E54K,L372P (hyperactive) (bacterial transposon Tn5 (expressed in …, UniProt Q46731 1-476, E54K;L372P)). Put plainly: ITC; ITC: 50 mM Tris pH 7.5, 800 mM NaCl, 0.1 mM EDTA, 5% glycerol, 25 C; 100 uM DNA titrated into 4 uM protein. The note with it: protein: recombinant; tags: His6-Sumo3 removed by SenP2; one extra N-terminal Ser remains; chain copies: 2; 19 bp duplex with 5' overhang (14 nt for ME-A, 15 nt for ME-B). On the technique in general: Isothermal titration calorimetry measures the heat released or taken up as one component is titrated into another.

The target of data set [4] is Tn5 transposase R27S,E54K,L372P (bacterial transposon Tn5 (expressed in …, UniProt Q46731 1-476, R27S;E54K;L372P)). The description is as above. The note with it: protein: recombinant; tags: His6-Sumo3 removed by SenP2; one extra N-terminal Ser remains; chain copies: 2; 19 bp duplex with 5' overhang (14 nt for ME-A, 15 nt for ME-B).

As a reminder, the stoichiometry N is the number of molecules, sites or subunits per partner or assembly. “Tn5 transposase, hyperactive allele carrying the R27S, E54K and L372P mutations (enzyme)” registered a stoichiometry N in data set [1] of 2.

As to “Tn5 transposase, hyperactive allele carrying the E54K and L372P mutations (enzyme)”, in data set [2], the stoichiometry N turned out to be 2.

B1: annealed Tn5 linker oligonucleotide (mosaic end); Tn5ME-A/Tn5MErev or Tn5ME-B/Tn5MErev, not stated which (dsDNA)
DNA 1: TCGTCGGCAGCGTCAGATGTGTATAAGAGACAG
DNA 2: CTGTCTCTTATACACATCT
modifications: 5' phosphate on Tn5MErev
As a reminder, the Kd is the concentration at which binding is half-saturated. B1: the Kd in data set [3] worked out at 0.5 ± 0.09 µM; in data set [4], 12.9 ± 2.1 µM.
